# Measurements from US20180099041A1.
# Legend:
# [1] = biological target: gp160 clone 108051_005 Q655R (HIV-1)
# [2] = biological target: gp160 clone 108069_005 Q655R (HIV-1)
Substance,IC50 (neutralization of pseudovirus infection) [1] [µg/mL],IC50 (neutralization of pseudovirus infection) [2] [µg/mL],IC50 (neutralization of pseudovirus infection) (108060_022 Q655R (HIV-1)) [µg/mL],IC50 (neutralization of pseudovirus infection) (108060_024 R655Q (HIV-1)) [µg/mL]
CD4-IgG (from UniProt P01730) (Fc fusion),5.21,1.08,0.161,> 20
broadly neutralizing monoclonal antibody 2F5,0.343,0.052,0.093,3.43
broadly neutralizing monoclonal antibody 4E10,1.31,0.044,0.156,6.55
"broadly neutralizing, CD4 blocking monoclonal antibody b12",> 20,> 20,> 20,> 20
enfuvirtide (peptide),0.036,0.011,0.004,0.13
monoclonal antibody 2G12,> 20,> 20,> 20,> 20
